Measured values taken from US20020004214A1, “Method to detect modulators of histidine kinases” (priority 1999, published 2002).

Tests used:
[1] = test system: MalE-EspB fusion protein; assay: EspB autophosphorylation gel electrophoresis assay; format: biochemical, Staphylococcus aureus; conditions: purified protein pretreated with 2 M or 0.5 M guanidine-HCl, then dialyzed; [γ-32P]ATP 30 minutes; vs protein not pretreated
Experimental: Enzyme autophosphorylation activity was assayed as described in Example 4 below. Samples containing equal amounts of purified MalE-EspB fusion that had either been treated or not with guanidine-HCl were incubated with [γ-^32P]ATP for 30 minutes, analyzed by polyacrylamide gel electrophoresis, and exposed to X-ray film. In FIG. 3 the bands show the autophosphorylated protein, and can be quantitated. Lanes 1 and 2 show the activity of purified protein samples that had not been pretreated with guanidine-HCl, whereas the protein samples inlanes 3 and 4 had been pretreated with 2 M and 0.5 M guanidine-HCl, respectively, and dialyzed afterwards against enzyme storage buffer. When the X-ray picture is greatly overexposed, the protein bands become also apparent on lanes 1 and 2. The experiment showes that pretreatment with guanidine-HCl activates MalE-EspB by approximately 40 to 100-fold, a likely consequence of denaturing and then refolding the purified MalE-EspB protein.
Volumes of 18.5 μl of compounds diluted in 6% DMSO or controls of 6% DMSO alone were mixed in a microcentrifuge tube with an equal volume of EspB reaction mixture (containing EspB at 0.58 mg/ml in a salt buffer of 328 mM Tris-HCl [pH 8.0], 225 mM KCl, 0.4 mM PMSF {phenylmethylsulfonyl fluoride}, 1.2 mM DTT, 0.2 mM EDTA, 9.3 mM MnCl2, and 10% glycerol). […]

[2] = target: T1, EspA cognate response regulator (UniProt Q5HJX7)
T1 sequence: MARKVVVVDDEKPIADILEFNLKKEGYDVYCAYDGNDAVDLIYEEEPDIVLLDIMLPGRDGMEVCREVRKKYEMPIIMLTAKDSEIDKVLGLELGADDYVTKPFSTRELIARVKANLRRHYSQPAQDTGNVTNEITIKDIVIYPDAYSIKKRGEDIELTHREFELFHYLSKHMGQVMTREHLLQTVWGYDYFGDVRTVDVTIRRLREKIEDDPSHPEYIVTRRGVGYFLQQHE

Compound | activation of MalE-EspB autophosphorylation activity by pretreatment [1] | transphosphorylation of EspA by EspB without Ca++, [gamma-32P]ATP, SDS-PAGE and X-ray film [2] | transphosphorylation of EspA by EspB, [gamma-32P]ATP, SDS-PAGE and X-ray film [2]
Cl.N=C(N)N [guanidine-HCl, Guanidine-HCl] | 40 to 100 fold | – | –
MalE-EspB fusion protein | – | this transphosphorylation requires the presence of Ca^++ whereas autophosphorylation of EspB does not (absence of the EspA band in lane 5) | EspA is unable to autophosphorylate (lane 3), but that it can be transphosphorylated by its cognate HPK EspB (lane 2)
